Results as given in article PMC7694065.

Biological target: recombinant Hbl B (hemolysin BL component B) with N-terminal strep tag (Bacillus cereus) (UniProt P80172)

## recombinant Hbl B (hemolysin BL component B) with N-terminal strep tag (from UniProt P80172 32-375) (natural protein)
  binding of rHbl B to Vero cells (flow cytometry, mAb 1G8-Alexa 488) after 10 min heat treatment over a temperature gradient; minimum 7% FL1-positive cells at 60 °C, increase from 70 °C upwards (% FL1-positive cells): 93
